Laboratory results: US9540654B2, “Synthetic brassica-derived chloroplast transit peptides” (Dow AgroSciences LLC, priority 2012, dated 2017)

B1: TraP13: chimeric chloroplast transit peptide SEQ ID NO:8, N-terminus from Arabidopsis thaliana, C-terminus from Brassica napus EPSPS (protein)
chain: MAQVSRICNGVQNPSLISNLSKSSQRKSPLSVSLKTQQPRASSWGLKKSGTMLNGSVIRPVKVTASVS
modifications: TraP13 chloroplast transit peptide
B2: TraP5: chloroplast transit peptide (SEQ ID NO:29) linked with dgt-28 (protein)
chain: MQLLNQRQALRLGRSSASKNQQVAPLASRPASSLSVSASSVAPAPACSAPAGAGRRAVVVRA
modifications: Chloroplast Transit Peptide
B3: TraP8: chloroplast transit peptide (SEQ ID NO:30) linked with dgt-28 (protein)
chain: MAQSSRICHGVQNPCVIISNLSKSNQNKSPFSVSLKTHQQQRRAYQISSWGLKKSNNGSVIRPVKA
modifications: Chloroplast Transit Peptide
B4: TraP23: chloroplast transit peptide (SEQ ID NO:41) linked with dgt-28 or dgt-31 (protein)
chain: MAQINKSANGVRNASLISNFSNTRQAKSPFSLSCGTRLKNSSRGLKKVAVRLIGSRVKVSAS
modifications: Chloroplast Transit Peptide

Columns and labels:
Zea mays B104 = assay: Post-emergence glyphosate tolerance of dgt-28 T0 corn (greenhouse); type: in vivo; conditions: for protection to glyphosate: T0 corn, dgt-28 linked to the transit peptide
Experimental: Zea mays dgt-28 transformation events (T0) were allowed to acclimate in the greenhouse and were grown until plants had transitioned from tissue culture to greenhouse growing conditions (i.e., 2-4 new, normal looking leaves had emerged from the whorl). Plants were grown at 27° C. under 16 hour light:8 hour dark conditions in the greenhouse. The plants were then treated with commercial formulations of DURANGO DMA™ (containing the herbicide glyphosate) with the addition of 2% w/v ammonium-sulfate. Herbicide applications were made with a track sprayer at a spray volume of 187 L/ha, 50-cm spray height. T0 plants were sprayed with a range of glyphosate from 280-4480 g ae/ha glyphosate, which is capable of significant injury to untransformed corn lines. A lethal dose is defined as the rate that causes >95% injury to the B104 inbred.
T0 events of dgt-28 linked with TraP4, TraP5, TraP8 and TraP23 were generated by Agrobacterium transformation and were allowed to acclimate under controlled growth chamber conditions until 2-4 new, normal looking leaves had emerged from the whorl. Plants were assigned individual identification numbers and sampled for copy number analyses of both dgt-28 and aad-1. Based on copy number analyses, plants were selected for protein expression analyses. Plants were transplanted into larger pots with new growing media and grown at 27° C. under 16 hour light:8 hour dark conditions in the greenhouse. Remaining plants that were not sampled for protein expression were then treated with commercial formulations of DURANGO DMA™ (glyphosate) with the addition of 2% w/v ammonium-sulfate. Treatments were distributed so that each grouping of plants contained T0 events of varying copy number. Herbicide applications were made with a track sprayer at a spray volume of 187 L/ha, 50-cm spray height. T0 plants were sprayed with a range of glyphosate from 280-4480 g ae/ha glyphosate capable of significant injury to untransformed corn lines. A lethal dose is defined as the rate that causes >95% injury to the B104 inbred. B104 was the genetic background of the transformants.

[1] = test system: chloroplasts of the tobacco leaf tissue; assay: Tobacco transient assay, confocal microscopy of TraP-YFP; type: cell-based, Nicotiana benthamiana; conditions: Agrobacterium-infiltrated tobacco leaves
Text: The Trap12 and TraP13 chimeric chloroplast transit peptide sequences were initially tested via a transient in planta assay. Polynucleotide sequences which encode the Trap12 (SEQ ID NO:5) and TraP13 (SEQ ID NO:7) chimeric chloroplast transit peptide sequences were synthesized. A linker sequence (SEQ ID NO:10) was incorporated between the TraP sequence and the yfp coding sequence. The resulting constructs contained two plant transcription units (PTU). The first PTU was comprised of the Arabidopsis thaliana Ubiquitin 10 promoter (AtUbi10 promoter; Callis, et al., (1990) J. Biol. Chem., 265: 12486-12493), Trap yellow fluorescent protein fusion gene (TraP-YFP; US Patent App. 2007/0298412), and Agrobacterium tumefaciens ORF 23 3′ untranslated region (AtuORF23 3′UTR; U.S. Pat. No. 5,428,147). […]
Agrobacterium-infiltrated tobacco leaves were severed from the plant, and placed into a petri-dish with water to prevent dehydration. The infiltrated tobacco leaves were observed under blue light excitation with long-pass filter glasses held in place using a Dark Reader Hand Lamp™ (Clare Chemical Research Co.; Dolores, Colo.) to identify undamaged areas of the leaf that were successfully expressing the YFP reporter proteins. […]

[2] = test system: tobacco (cv. Petit Havana); assay: Postemergence glyphosate tolerance of dgt-28 tobacco (T1, T2); type: in vivo; conditions: T1 tobacco, 2240 g ae/ha glyphosate, 14 DAT
Text: T1 resistant plants from each event used in the progeny testing were given unique identifiers and sampled for zygosity analyses of the dgt-28 gene. Zygosity data were used to assign 2 hemizygous and 2 homozygous replicates to each rate of glyphosate applied allowing for a total of 4 replicates per treatment. These plants were compared against wildtype Petite havana tobacco. All plants were sprayed with a track sprayer set at 187 L/ha. The plants were sprayed from a range of 560-4480 g ae/ha DURANGO DMA™. All applications were formulated in water with the addition of 2% w/v ammonium sulfate (AMS). Plants were evaluated at 7 and 14 days after treatment. Plants were assigned an injury rating with respect to overall visual stunting, chlorosis, and necrosis. The T1 generation is segregating, so some variable response is expected due to difference in zygosity.
Rates of DURANGO DMA™ ranging from 420-3360 g ae/ha glyphosate were applied to 2-3 leaf tobacco as previously described.

Row | Molecule | glyphosate concentration controlling non-transformed plants (Zea mays B104; non-transformed corn plants) [g ae/ha] | localization of YFP fluorescence signal (microscopy imaging) [1] | protection to glyphosate (Zea mays B104) | % Injury Ave [2] [%]
1 | O=C(O)CNCP(=O)(O)O [glyphosate, reference compound] | ≥ 280 |  |  | 
2 | B1 |  | accumulated within the chloroplasts |  | 
3 | B2 |  |  | robust protection | 
4 | B3 |  |  | robust protection | 9.3
5 | B4 |  |  | robust protection | 9.5
